# What was measured:
# [1] = molecular target: human GPR49 (G-Protein-coupled Receptor 49) on cells (human) (UniProt O75473); experiment: cell-based or functional assay
# [2] = molecular target: Recombinant human GPR49-Fc ectodomain (human); experiment: direct ELISA on coated GPR49-Fc, about 0.1-250 nM, A450; table without unit, nM from the axis [nM] Ab; control whose curve in FIG. 9G is flat (see non_binding), so the fitted value lies outside the range tested and carries no meaning
# Recombinant human GPR49-Fc ectodomain (human), sequence (chain, as listed by the source limits assumed, form in doubt): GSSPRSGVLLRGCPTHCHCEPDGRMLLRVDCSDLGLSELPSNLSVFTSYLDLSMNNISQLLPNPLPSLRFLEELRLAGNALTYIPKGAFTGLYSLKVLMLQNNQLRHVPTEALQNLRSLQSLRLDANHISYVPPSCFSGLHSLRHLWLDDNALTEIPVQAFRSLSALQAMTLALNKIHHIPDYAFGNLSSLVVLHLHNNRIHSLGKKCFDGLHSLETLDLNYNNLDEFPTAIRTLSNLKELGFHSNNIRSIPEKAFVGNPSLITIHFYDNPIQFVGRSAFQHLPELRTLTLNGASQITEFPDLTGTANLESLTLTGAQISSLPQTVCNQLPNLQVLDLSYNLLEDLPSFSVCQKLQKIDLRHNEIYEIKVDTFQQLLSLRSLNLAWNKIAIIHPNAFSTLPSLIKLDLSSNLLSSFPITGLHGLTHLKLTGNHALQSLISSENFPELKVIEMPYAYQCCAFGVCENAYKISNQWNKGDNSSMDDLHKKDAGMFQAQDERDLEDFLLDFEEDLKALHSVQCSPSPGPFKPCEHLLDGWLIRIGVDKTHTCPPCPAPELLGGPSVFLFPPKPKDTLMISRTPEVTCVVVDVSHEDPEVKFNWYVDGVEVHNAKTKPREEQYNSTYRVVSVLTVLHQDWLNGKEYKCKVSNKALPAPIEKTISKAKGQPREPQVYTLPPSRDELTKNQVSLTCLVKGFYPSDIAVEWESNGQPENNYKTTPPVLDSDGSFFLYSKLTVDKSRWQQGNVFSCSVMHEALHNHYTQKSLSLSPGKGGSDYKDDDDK
# human GPR49 (G-Protein-coupled Receptor 49) on cells (human), sequence (O75473 22-907 limits assumed): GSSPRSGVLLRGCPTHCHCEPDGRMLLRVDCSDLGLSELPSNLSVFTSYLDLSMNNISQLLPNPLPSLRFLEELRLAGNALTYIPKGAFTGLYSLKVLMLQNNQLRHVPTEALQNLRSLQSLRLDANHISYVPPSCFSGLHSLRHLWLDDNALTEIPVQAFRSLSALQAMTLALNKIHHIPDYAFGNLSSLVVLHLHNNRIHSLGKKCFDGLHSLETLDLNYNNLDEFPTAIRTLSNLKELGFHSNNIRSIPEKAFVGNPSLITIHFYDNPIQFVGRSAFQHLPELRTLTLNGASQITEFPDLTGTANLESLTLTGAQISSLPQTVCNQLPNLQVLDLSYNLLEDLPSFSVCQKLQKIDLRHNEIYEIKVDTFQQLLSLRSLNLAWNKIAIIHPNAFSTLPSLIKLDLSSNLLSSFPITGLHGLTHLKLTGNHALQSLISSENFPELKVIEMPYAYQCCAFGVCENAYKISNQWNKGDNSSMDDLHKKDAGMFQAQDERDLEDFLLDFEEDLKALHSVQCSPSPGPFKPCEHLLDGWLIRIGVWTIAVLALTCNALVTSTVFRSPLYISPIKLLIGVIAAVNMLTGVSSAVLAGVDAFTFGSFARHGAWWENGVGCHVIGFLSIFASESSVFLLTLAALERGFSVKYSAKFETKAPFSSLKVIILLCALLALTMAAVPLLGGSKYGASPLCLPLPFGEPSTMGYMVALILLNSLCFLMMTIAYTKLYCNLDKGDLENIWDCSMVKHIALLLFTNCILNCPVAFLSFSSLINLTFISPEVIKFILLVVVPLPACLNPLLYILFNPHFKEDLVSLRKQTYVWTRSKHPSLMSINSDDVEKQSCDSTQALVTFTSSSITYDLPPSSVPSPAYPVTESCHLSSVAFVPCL
"increase in proliferation, GPR49-3T3 clone 28 [1] [fold]",EC50 [2] [nM],Substance
4,,R-spondin-1 (ligand)
,1580,Ctrl (antibody)

# — patent US20150037324A1
